Test results from patent US20220362357A1, “Synergistic Combinations of Amino Acid Depletion Agent Sensitizers (AADAS) and Amino Acid Depletion Agents (AADA), and Therapeutic Methods of Use Thereof” (STICHTING RADBOUD UNIVERSITAIR MEDISCH CENTRUM, priority 2018, published 2022).

Tests used:
[1] = system: Human Acute Lymphoblastic Leukemia blasts in NSG mice; conditions: for bodyweight: NSG mice, ibrutinib 25 mg/kg oral daily 9 days, ONCASPAR 300 IU/kg IV days 1, 4, 7
Procedure: Procedure. The experimental design is schematized in FIG. 7A. Briefly, thirty-two (32) NOD.Cg-Prkdcscid I2rgtm1Wjl/SzJ (“NSG”) mice were injected intrafemorally with 500,000 leukemic blasts (2 injections/mouse) (Human Acute Lymphoblastic Leukemia). […] During and after treatment, mice were weighed weekly, and their welfare was evaluated daily. Blood samples were taken weekly for assessment of the leukemia burden. Termination was predefined with a leukemia burden reaching 50% leukemic blasts in peripheral blood as measured by flow cytometry or euthanasia because of overt signs of discomfort due to disease.
The primary outcome of this experiment was event-free survival, where event was defined as […]. Differences in event-free survival were analyzed using a Kaplan-Meier plot and significance was tested using the log-rank test.

LOUCY cells = experiment: T-ALL cell line viability and cell death by amine exposure; type: cell-based, human; conditions: 3 or 7 days
[2] = system: 30 cell lines covering a variety of cancer cell types; experiment: ApoTox-Glo Triplex Assay (viability, cytotoxicity, apoptosis), 3-4 days, panel; type: cell-based; conditions: in still other cases
Procedure: Two incubation times were tested. […] Ibrutinib was the AADAS as detailed above.
Cell culture conditions. Adherent tumor cells were grown as monolayer at 37° C. in a humidified atmosphere (5% CO2, 95% air). […] The cells were counted and their viability assessed by 0.25% trypan blue exclusion assay.
Cell plating for 3 to 4 day incubation.
Each compound was tested alone at 6 doses.
Experiments were performed in duplicate.
Two protocols of incubation were performed: overnight and over 3/4 days as indicated.
The assay was performed as recommended by the manufacturer. […] The assay was performed as recommended by the manufacturer. […] Apoptosis was measured in luminescence.

HBP-ALL cells = experiment: T-ALL cell line viability and cell death by amine exposure; type: cell-based, human; conditions: 3 or 7 days

| Molecule | bodyweight [1] | mice that reached the termination point (>50% leukemic blasts) after 10 weeks ([1]; weeks after transplantation) | leukemia development ([1]; human leukemic blasts in blood by flow cytometry) | sensitivity, cell death by amine exposure (LOUCY cells) | resistance of the cells [2] | sensitivity, cell death by amine exposure (HBP-ALL cells) |
| --- | --- | --- | --- | --- | --- | --- |
| C=CC(=O)N1CCC[C@@H](n2nc(-c3ccc(Oc4ccccc4)cc3)c3c(N)ncnc32)C1 [ibrutinib, reference compound] | mild and transient drop in bodyweight | 4/7 | – | – | – | – |
| PEG-Asparaginase: E. coli-derived peg-conjugated ASNase, used in the in vivo studies (protein, UniProt P00805 23-348, looked up, PEG conjugate (pegaspargase)) L-asparaginase 2: LPNITILATGGTIAGGGDSATKSNYTVGKVGVENLVNAVPQLKDIANVKGEQVVNIGSQDMNDNVWLTLAKKINTDCDKTDGFVITHGTDTMEETAYFLDLTVKCDKPVVMVGAMRPSTSMSADGPFNLYNAVVTAADKASANRGVLVVMNDTVLDGRDVTKTNTTDVATFKSVNYGPLGYIHNGKIDYQRTPARKHTSDTPFDVSKLNELPKVGIVYNYANASDLPAKALVDAGYDGIVSAGVGNGNLYKSVFDTLATAAKTGTAVVRSSRVPTGATTQDAEVDDAKYGFVASGTLNPQKARVLLQLALTQTKDPQQIQQIFNQY | strong but transient weight loss | – | stronger delay in leukemia development | – | – | – |
| …®: recombinantly produced E. coli ASNase, NCBI Ref Seq WP_000394140.1, ATC Code L01XX02 (protein, UniProt P00805 23-348, looked up) L-asparaginase 2: LPNITILATGGTIAGGGDSATKSNYTVGKVGVENLVNAVPQLKDIANVKGEQVVNIGSQDMNDNVWLTLAKKINTDCDKTDGFVITHGTDTMEETAYFLDLTVKCDKPVVMVGAMRPSTSMSADGPFNLYNAVVTAADKASANRGVLVVMNDTVLDGRDVTKTNTTDVATFKSVNYGPLGYIHNGKIDYQRTPARKHTSDTPFDVSKLNELPKVGIVYNYANASDLPAKALVDAGYDGIVSAGVGNGNLYKSVFDTLATAAKTGTAVVRSSRVPTGATTQDAEVDDAKYGFVASGTLNPQKARVLLQLALTQTKDPQQIQQIFNQY | – | – | – | extremely sensitive | somewhat resistant | extremely sensitive |
